Laboratory results reported in the nanobody polyreactivity screen of Harvey et al. (2022).

Assay: yeast display, Sf9 membrane polyspecificity reagent, FACS + sequencing; frameworks hold sequencing errors
Procedure, shortened: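 Polyreactivity labels are assigned by the sorting gate from which each nanobody was recovered. The gates were low and high (top ~1%), set on anti-HA fluorescence for expression and streptavidin fluorescence for reagent binding. Before sorting, galactose-induced (36–48 hours) yeast display cells were stained for 1 hour at 4 °C with 10% biotinylated, detergent-solubilized Sf9 membrane reagent.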

Sequence	polyreactivity (PSR sort gate)
QVQLVESGGGLVQAGCSLRLSCAASGSIFYGYAMGWYRQAPGKERELVAAISYSGDRTYYADSVKGRFTISRDNAKNSVYLQMNSLKPEDTAVYYCAAQRRYGDDYWGQGTQVTVSS	high polyreactivity
QVQLVESGGGLVQAGGSLRLSCAASGRIFDRYAIGWYRHAPGKERELVAAITSGGDTNYADSVKGRFTISRDNAKITVYLPKNSLKPEDTAVYYCNTRLVLGGGRRHDYWGQGTQVTVSS	low polyreactivity
QVQLVESGGGLVQAGGSLRISCAASGFIFIAYAMGWYRQAPGKERELVAAISKSGGNTYYADSVKGRFTISRDNAKNTVYLQMNSLKPEDTAVYYCATRPCYWRYEYWGQGTQVTVSA	high polyreactivity
QVQLVESGGGLVQAGGSLRLSCAASGFTFYRNAMGWYRQAPGKERELVARISRGGSTNYADSVKGRFTISRDNAKNTVYLQMNSLKPEDTAVYYCNRDYYVGRYDYWGQGTQVTVSS	high polyreactivity
QVQLVESGGGLVQAGGSLRLSCAASGFIFYEYDMGWYRQAPGKERELVAAISVSGGSTYYADSVKGRFTISRDNAKNTVYLQRNSLKPEDTAVYYCAVFLPDYGRYDYWGQGTQVTVSS	low polyreactivity
QVQLVESGGGLVQAGGSLRLSCAASGRTLRQYAMGRYRQAPGKERELVAAISRGGSTTYADSVKGRFTISRDNAKNTVYLQMNSLKPEDTAVYYCNAELNWYYYIHLDYWGQGTQVTVSS	low polyreactivity
QVQLVESGGGLVQAGGSLRLSCAASGSTFVHNAMGWYRQAPGKERELVARISFRSGRTYYADSVKGRFTISRDNAKNTVYLQMNSLKAEDTAVYYCNAVLYGQYKYDYWGQGTQVTVSS	high polyreactivity
QVQLVESGGGLVQAGGSLSLSCAASGFIFNYYVMGWYRQAPGKERELVATISWRGGRTYYADSVKGRFTISRDNAKNTVYLQMNSLKPEDTAVYYCAKDSYYFTRYDYWGQGTQVTVSS	low polyreactivity
QVQLVESGGGLLQAGGSLRLSFAASGFTFGRYAMGWYRQAPGKERELVAAISTSGGRTYYADSVKGRFTISRDNAKNTVYLQMNSLKPEDTAVYYCAAEQRRFTGYDYWGQGTQVTVSS	high polyreactivity
QVQLQESGGGLVQAGGSLRLSCAASGNIYPTVSMGWYRQAPGKEREFVVTIDPGSNTYYADSAKGRFTISRDNAKNTVYLQMNSPKPEDTAVYYCAVVFADWATYGYWGQGTQVTVSS	high polyreactivity
QVQHVESGGGLVQEGGSLRLSCAASGITFGRNTMGWYRQAPGKERELVAAIDSGGNTYADSVKGRFTISRDNAKNTVYLQMNSLKPVDTAVYSCAVDGGEFSSYGYWGQGTQVTVSS	low polyreactivity
QVQLVESGGGLVQAGGSLRLSCAPSGLTYRRYTMGWYRQAPGKEREFVAAISWGGDSTYYADSVKGRFTISRDNAKNTVYLQLTSLKPEDTAVYYCAADFLYIYNYWGQGTQVTVSS	high polyreactivity
QVQLVESGGGLVQAGGSLRLSCAASGSIFDIYAMGWYRQAPGKERELVAAISWIGDSTSYAESVKGRFTISRDNAKNTVYLQMNSLKPEDTAVYYCNAVVQGLADFQKYDYWGQGTQVTVSS	low polyreactivity
QVQLVESGGGLVQAGGSLRLICAAAGRIVSYYTMGWYRQAPGKERELVAAISSGGSTNYADSVKGRFTISRDNAKNTVYLQMNSLKPEDTAVYYCAVRCGRRNYDRPAFGYWGQGTQVTVSS	high polyreactivity
QLQLVESGGGLFQAGGSLRISCAASGRTFLRNAMGSYRQPPGKEREFVATISAGGGSTYYADSVKGRFTISRDNAKNTVYLQMNSLKPEDTAVYYCAARYRAGPGYGMDSCGQGTQVTVSS	high polyreactivity
QVQLGESGGGLVQAGGSIRLSCAASGRTFYGYAMGWYRQAPGTERELVAAISYSGARTYYADSVKGRFTISRDNAKHTVNLQMNSLKPEDTAVYYCAATRAYWIGHLDYWGQGTQVTVSS	high polyreactivity
QFQLVESGGGLVQAGGSLRLSCAASGRTFRYYTMGWYRQAPGKEREFVAVITVNGGSTYYADSVKGRFTISRDNAKNTVYLQMNSLKPEDTAVYYCAKSYGSRHRYWPLYYWGQGTQVTVSS	high polyreactivity
QVQLVESGGGLVQAGGSLRLSCAASGSTFRLYPMGWYRQAPGKERELVAAISRSGGSTYYADSVKGRFTISRDNAKNTVYLQMNRLKPEDTAVYYCAKRRPLYAHPDDYWGQGTQVTVSS	low polyreactivity
QVHLVESGGGLVQAGGSLRLSCAASGLIFGKNAMGWYRQPPGKERELVAAISSGESTYADSVKWRFTISRDNAKNTVYLQMNSLKPEDTAVYYCNAEVLRESYDRHPTTDYYWGQGTQVTVSS	low polyreactivity
QVQLVESGGGLVQAGGSLRLSCAASGSIFPKYAMGWYRQAPGKERELVAAISRGGGSTYYADSVKGRFTISRDNAKYTVYLQMNSLKPEDTAVYYCAAQYYSLQWEYYYWGQGTQVTVSS	high polyreactivity
QVQLVESGGGLVQAGGSLRLSCAPSGFIFARNAMGWYRQAPGKERELVAVISTRGRTYYADSVKGRFTISRDNAKNTVYLQMKRLKPEDTAVYYCNADKVIGYDYWGQGTQVTVSS	high polyreactivity

Sequence	polyreactivity (PSR sort gate)
QVQLVESGGGLVQAGGSLRLSCAASGSTFKYYAMGWYRQAPGKEMELVAAIRGGGSTNYADSVTGPFTISRDNAKNTVYLQMNSLKPEDTAVYYCAARYGWYRGYNYWGQGTQVTVSS	high polyreactivity
QVQLEESGGGLFQAGGSLRLICAATGSIFRVYVMGWYIQAPGKERELVAAITSSDGTTYYADSVKGRFTISRDNAKNTVYLQMNSLKPEDTALYYCNAEFYSPPVVGPRYWYPGFYWGQGTQVTVSS	low polyreactivity
QVQLVESGGGLVQAGGSLRLSCAASGRIFYPYAMGWYRQAPGKEREVVAGITSSDDTTYYADSVKGRFTISRDNAKNTVYLQMNSLKPEDTAVYYCNTSVDRGLGYWGQGTQVTVSS	low polyreactivity
QVQLVESGGGVVQAGGSLRLSCAASGRIFGPYTMGWYRQAPGKERELVARISRRGGSTYYADSVKGRFTISRDNAKNTVYLQMNSLKPEDTAVYYCARSQAVYDGWFAKFGYWGQGTQVTVSS	low polyreactivity
QVQLVESGGGLVQAGGSLRLSCAASGYIFTRNAMGWYRQAPGKERELVAAISRSGGSTYYADSLKGRFTISRDNAKNTVYLQMNSLKPEDTSVYYCAAVDKGRPGRDYWGQGTQVTVSS	low polyreactivity
QVQLVESGGGLVQAGGSLRLSCASSGSTFNSYAMGWYRQAPGKERELVAAISWSGGSTYYADSVKGRFTISRDNAKNTVYLQMNSLKPEDTAVYYCNADYWWEYAYVVDYWGQGTQVTVSS	low polyreactivity
QVQLVESGGGLVQAGGSLRLSCAASGFIFSRYAMGWYRQAPGKERELVAAISSGGRTNYADSVKGRFTISRDNAKNTVYLQMNSLKPEDTAVYFCAALLRGRSGQFEYDYWGQGTQVTVSS	low polyreactivity
QVQLVESGGGLVQAGGSLRLSCAASGIIFAWYAMGWYRQAPGKERELLAAISWSGGSTYYADSVKGRFTISRDNAKNTVYLQMNILKPEDSAVYYCAPFPRRQGKYDYWGKGTQVTVSS	high polyreactivity
QVQLVESGGGLVQAGGSLRLSCAASGRTFRQYAMGWYRQAPGQETELVAAITWDGGSTYYADSVKGRFTISRDNAKNPVYLQMNSLKPEDTAVYYCAKLLGGTYYEYDYWGQGTQVTVSS	low polyreactivity
QVQLVESGGGLVQAGGSLRLSCAASGSTFWKYAMGWYRQAPGKERELVAAITRNGGRTFYADSVKGRFTISRDNAKNTVYLQMNSLKPEDTAVYYCNATAGHGYYYWGQGTQVTVSS	high polyreactivity
QVQLVESGGGLVQAGGSLRLSCAASGSTFSPYAMGWYRQAPGKERELVAAINYSSGSTYYADSVKGRFTISRDNAKNTVYLQMNSLKPEDTAVYYCANGWYAGYPYDYWGQGTQVTVSS	low polyreactivity
QVQLVESGGGLVQAGGSLSLSCAASGIIFYDYAMGWYRQAPGKERELVAAITSGGSTNYADSVKGRFTISRDNAKNTVYLLMNRLKPEVTAVYYCAATYWSWISLRFYWGLGTQVTVSS	low polyreactivity
QVQLVESVGGLVQAGGSLRLSSAASGSTFRGYALGWYRQSPGKERELVASISWSGGSTYYADSVKGRFTISRDNAKNTVYLQMNSLKQEDTAVYYCAARKRWRNIRMDYWGQGTQVTVSS	high polyreactivity
QVQLVESGGGLVQAGGSLRLSCAASGRTFRRNAMGWYRQAPGKERELVAAISWRGVSTYYADSVKGRFTISRDNAKNTVYLQMNSLKPEDNALYYCAVDFPYTRRDYWGQGPQVTVSS	high polyreactivity
QVQLVESGGGLVQAGGSLRLSCAASGYICVRYAMGWYRQAPGKEREFVAAISSSGGSTRYADSVKGRFTISRDNAKNTVYLQMNSLKPEDTAVYYCAATRVARHGSPMYYWGQGTQVTVSS	high polyreactivity
QVQLVESAAGLVQAGGSLRLTCDGSGTTFPGYAMGWYRPEPGNERELVAAGGSTYYADSVKGRFTISRDNAKNTVYFQMNCLKPVETAGYYCAASWGSFQKGTYYYWGQGTQVTVSS	low polyreactivity
QVQLVESGGGLVQAGGSLRLSCAASGSIFSPYAMGWYRQAPGKERELVAAIRWGGGCTYADSVKGRFTISRDNAKNTVYLQMNSVIPEDSAVYYCAARRRSLRGYDYWGQGTQVTVSS	high polyreactivity
QVQLVESGGGLVQAGGSLRLSCAASGRTFGYYAMGWYRQAPGKERELVATITSRGGDTSYADSVKGRFTISRDNAKNTVYLQMKSLKPEDTAVYYCAADRFQGRDDYWGQGTQVTVSS	high polyreactivity
QVQLVESGGGLVQAGGSLRLSCAASGGIFPFYAMGWYRQAPGKERELVAAISSGGSTYYADSVKGRFTISRDNAKNTVYLQMNSLKPEDTAVYYCAKRISTRRYDYWGQGTQVTVSS	low polyreactivity
QVQLVESGGGLVQAGGSLRLSCAASGFTFSYNAMGWYRQAPGKERELVAGISYGGGNTFYADSVKGRFTISRDNAKNTVYLQMNSLKPEDTAVYDCAAVNKSGTYVEYDYWGQGTQVTVSS	low polyreactivity
